# Measurements taken from article PMC9991911, “IMM0306, a fusion protein of CD20 mAb with the CD47 binding domain of SIRPα, exerts excellent cancer killing efficacy by activating both macrophages and NK cells via blockade of CD47-SIRPα interaction and FcɣR engagement by simultaneously binding to CD47 and CD20 of B cells” (Leukemia, 2022).
# B1: IMM0306, a fusion protein of CD20 mAb with the CD47 binding domain of SIRPα (bispecific antibody, V domains shown)
# VH: QVQLQQPGAELVKPGASVKMSCKASGYTFTSYNMHWVKQTPGRGLEWIGAIYPGNGDTSYNQKFKGKATLTADKSSSTAYMQLSSLTSEDSAVYYCARSTYYGGDWYFNVWGAGTTVTVSA
# VL: QIVLSQSPAILSASPGEKVTMTCRASSSVSYIHWFQQKPGSSPKPWIYATSNLASGVPVRFSGSGSGTSYSLTISRVEAEDAATYYCQQWTSNPPTFGGGTKHELK
# notes: IgG1; only the SIRPα D1 part can be built; also called CD47xCD20 mAb trap; source: in-house developed CHO-K1 cell expression system; copies: 2 +
# Key:
# [1] = target: T1, CD20 on Raji-CD47KO cells (Homo sapiens (endogenous, Raji-CD47KO), UniProt P11836); experiment: flow cytometry on cells; cultured cells (Jurkat; Raji-CD47KO; cells with both targets) stained with IMM0306, then secondary antibody anti-human IgG (Fc)-FITC; data analysed with GraphPad Prism 8.0; conditions: one partner purified
# T1 construct: CD20, endogenous on Raji-CD47KO cells; also called CD20 target on Raji-CD47KO cells; CD20-positive cells (Raji-CD47KO); source: endogenous, on Raji-CD47KO cells (Raji with human CD47 knockout, in-house)
# T1 sequence (P11836 whole entry): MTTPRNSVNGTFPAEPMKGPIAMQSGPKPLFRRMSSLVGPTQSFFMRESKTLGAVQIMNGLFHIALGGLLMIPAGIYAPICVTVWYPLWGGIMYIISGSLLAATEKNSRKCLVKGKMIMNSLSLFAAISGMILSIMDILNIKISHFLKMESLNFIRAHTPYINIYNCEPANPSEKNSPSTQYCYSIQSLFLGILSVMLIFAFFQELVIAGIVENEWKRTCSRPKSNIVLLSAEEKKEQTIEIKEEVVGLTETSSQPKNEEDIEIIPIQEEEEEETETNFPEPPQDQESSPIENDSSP
# CD47/CD20 double targets = experiment: as above
# [2] = target: CD47 on Jurkat cells (human (endogenous in Jurkat)) (UniProt Q08722); experiment: as above
# Sequence of CD47 on Jurkat cells (human (endogenous in Jurkat)) (Q08722 19-323): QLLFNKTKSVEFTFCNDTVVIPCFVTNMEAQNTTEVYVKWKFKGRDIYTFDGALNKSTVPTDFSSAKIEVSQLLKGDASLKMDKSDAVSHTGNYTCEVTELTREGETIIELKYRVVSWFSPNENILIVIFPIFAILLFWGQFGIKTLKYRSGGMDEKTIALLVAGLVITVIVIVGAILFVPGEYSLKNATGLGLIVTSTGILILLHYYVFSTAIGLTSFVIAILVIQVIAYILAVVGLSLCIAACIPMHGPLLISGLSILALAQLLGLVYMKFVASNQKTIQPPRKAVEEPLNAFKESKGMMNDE
# CD20 (Biacore assay) = CD20 (Biacore assay) (UniProt P11836); experiment: SPR; Biacore assay; who was immobilised and the conditions not given
# Sequence of CD20 (Biacore assay) (P11836 whole entry): as the sequence (P11836 whole entry) above
# CD47 (Biacore assay) = CD47 (Biacore assay) (UniProt Q08722); experiment: as above
# Sequence of CD47 (Biacore assay) (Q08722 19-323): as the sequence (Q08722 19-323) above
binder,measurement,setting,value
B1,EC50,[1],18.9 nM
same,EC50,CD47/CD20 double targets,11.5 nM
same,EC50,[2],16.8 nM
same,Kd,CD20 (Biacore assay),2.45 nM
same,Kd,CD47 (Biacore assay),4.91 nM
